Results: patent US20210238279A1 (Johns Hopkins, published 2021)

Columns and labels:
Test in all cases: immunoblot of HEK293 lysates over-expressing FLAG-tagged ZnT homologs
[1] = target: T1, human ZnT2 with C-terminal FLAG tag (human, UniProt Q9BRI3 1-372, limits assumed)
T1 construct: Commercial HEK293 lysate (Origene), SDS-denatured on immunoblots; not shown: C-terminal FLAG octapeptide
T1 sequence (looked up): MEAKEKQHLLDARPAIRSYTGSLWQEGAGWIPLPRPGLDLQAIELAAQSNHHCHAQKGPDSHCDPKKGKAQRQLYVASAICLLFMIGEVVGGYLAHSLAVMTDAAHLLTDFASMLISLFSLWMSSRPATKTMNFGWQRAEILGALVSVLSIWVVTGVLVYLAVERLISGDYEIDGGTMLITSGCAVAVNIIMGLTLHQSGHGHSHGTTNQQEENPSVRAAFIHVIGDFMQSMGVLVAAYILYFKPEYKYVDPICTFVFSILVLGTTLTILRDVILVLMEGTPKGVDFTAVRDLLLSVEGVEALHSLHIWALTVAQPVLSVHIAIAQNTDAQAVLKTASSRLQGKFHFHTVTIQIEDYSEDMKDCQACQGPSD
Description: (§1) FIG. 7A-7D. mAb binding specificities (FIG. 7A) mAb binding to ZnT8-His immobilized to Ni-NTA plate. Bound mAb20 (red) or mAb39 (magenta) was detected by an HRP-conjugated secondary antibody. Solid lines are least-squares fits of binding datapoints to a one-component binding process. Error bars are standard errors (n=8). (FIG. 7B) SDS-denatured mouse ZnT8-His (labeled as M) and human ZnT8-His (labeled as H) on immunoblots were detected by mAb20 or mAb39 as indicated. […] (FIG. 7C) Detection of endogenous human ZnT8 in EndoC-βH cells by mAb20 or […] immunoblotting. An equal amount of EndoC-βH lysate (5 μg total protein) was loaded to each lane. (FIG. 7D) Immunoblotting of HEK lysates with or with over-expression of a ZnT homolog as indicated. An approximately equal amount of total lysate protein (5 μg) was located to each lane, probed by either mAb20, mAb39, or anti-FALG antibody as indicated. FIG. 8. HTRF response to human ZnT8, mouse ZnT8 and human ZnT3.
(§2) Immunoblotting. SDS-solubilized cell lysate of EndoC-β cells or HEK293 cells over-expressing ZnT8 was subjected to SDS-PAGE and probed with a 1:3000 mAb20 or mAb39, followed by 1:3000 anti-mouse HRP-conjugated secondary antibody (GE Healthcare cat. #NA931V). A duplicated gel was Coomassie-stained to show an equal protein loading for each lane ([…]). To compare the mAb20 or mAb39 reactivities to different ZnT homolog, we used commercial HEK293 lysates with lentivirus-mediated over-expression of ZnT1, ZnT2, ZnT3, ZnT4, ZnT7, ZnT8, ZnT10, each is tagged by a Flag tag at the C-terminus (Origene, catalog nos. LY500001, LC412033, LC423751, LC401170, LY415673, LC428544, LC406320, and LC412886). Approximately equal amounts of total protein (5 μg) was loaded to each lane, and then probed with mAb20, mAb39, or anti-FLAG antibody (Origene, catalog no. TA50011-100) as above. The expression levels of ZnT homologs varied with ZnT1 most abundantly expressed.

[2] = target: T2, human ZnT4 with C-terminal FLAG tag (human, UniProt O14863 1-429)
T2 construct: Commercial HEK293 lysate (Origene), SDS-denatured on immunoblots; not shown: C-terminal FLAG octapeptide
T2 sequence (looked up): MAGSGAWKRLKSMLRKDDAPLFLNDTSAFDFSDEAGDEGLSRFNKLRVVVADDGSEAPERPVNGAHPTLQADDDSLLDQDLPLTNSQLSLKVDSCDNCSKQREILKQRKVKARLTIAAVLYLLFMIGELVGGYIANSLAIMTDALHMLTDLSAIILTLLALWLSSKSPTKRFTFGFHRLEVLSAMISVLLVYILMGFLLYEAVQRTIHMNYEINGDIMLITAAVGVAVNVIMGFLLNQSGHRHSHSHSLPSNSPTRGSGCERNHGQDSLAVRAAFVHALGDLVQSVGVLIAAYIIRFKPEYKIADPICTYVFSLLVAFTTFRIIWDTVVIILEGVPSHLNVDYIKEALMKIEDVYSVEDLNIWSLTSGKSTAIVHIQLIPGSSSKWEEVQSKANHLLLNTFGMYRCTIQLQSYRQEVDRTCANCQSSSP
Description: as §1, §2

[3] = target: T3, human ZnT7 with C-terminal FLAG tag (human, UniProt Q8NEW0 1-376)
T3 construct: Commercial HEK293 lysate (Origene), SDS-denatured on immunoblots; not shown: C-terminal FLAG octapeptide
T3 sequence (looked up): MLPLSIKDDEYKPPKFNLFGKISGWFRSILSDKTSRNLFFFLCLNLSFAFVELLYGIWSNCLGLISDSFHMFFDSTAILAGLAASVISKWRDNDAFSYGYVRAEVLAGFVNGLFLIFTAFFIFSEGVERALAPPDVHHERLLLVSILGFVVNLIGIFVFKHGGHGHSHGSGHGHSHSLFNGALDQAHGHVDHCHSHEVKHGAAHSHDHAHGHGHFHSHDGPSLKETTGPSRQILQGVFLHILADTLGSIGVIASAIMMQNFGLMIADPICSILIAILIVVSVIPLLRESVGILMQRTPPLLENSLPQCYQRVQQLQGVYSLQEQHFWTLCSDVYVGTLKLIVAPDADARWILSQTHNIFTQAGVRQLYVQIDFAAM
Description: as §1, §2

[4] = target: T4, human ZnT10 with C-terminal FLAG tag (human, UniProt Q6XR72 1-485, limits assumed)
T4 construct: Commercial HEK293 lysate (Origene), SDS-denatured on immunoblots; not shown: C-terminal FLAG octapeptide
T4 sequence (looked up): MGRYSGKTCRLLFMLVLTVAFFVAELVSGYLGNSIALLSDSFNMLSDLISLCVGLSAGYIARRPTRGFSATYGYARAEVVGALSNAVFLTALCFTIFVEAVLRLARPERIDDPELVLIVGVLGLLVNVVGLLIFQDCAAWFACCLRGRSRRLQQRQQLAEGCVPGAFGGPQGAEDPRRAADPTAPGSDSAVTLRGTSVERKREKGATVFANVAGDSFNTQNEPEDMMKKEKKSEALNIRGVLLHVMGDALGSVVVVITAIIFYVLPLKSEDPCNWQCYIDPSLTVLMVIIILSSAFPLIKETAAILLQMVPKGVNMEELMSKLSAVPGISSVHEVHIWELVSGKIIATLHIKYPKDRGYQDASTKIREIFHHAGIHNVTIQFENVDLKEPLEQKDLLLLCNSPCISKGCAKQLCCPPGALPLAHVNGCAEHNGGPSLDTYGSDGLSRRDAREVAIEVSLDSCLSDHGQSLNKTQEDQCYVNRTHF
Description: as §1, §2

Measured: binding result

B1: mAb20 (antibody, V domains shown)
VH: QIQLVQSGPELKKPGETVKISCKASGYIFTNYPMHWVKQAPGKGLKWMGWINTYSGVPTHADDFKGRFAFSLETSANSAFLQINNLKNEDTATYFCTRSRITPTGGYAMDYWGQGTSVTVSS
VL: DVVMTQTPLSLPVSLGDQASISCRSSQSLVHSNGNTYLHWYLQKPGQSPNLLISKVSNRFSGVPERFSGSGSGTDFTLKISRVEAEDLGVYFCSQNTHVPWTFGGGTKLEIKR
notes: Mouse hybridoma mAb purified on protein A/G; In some assays it was labelled with Alexa Fluor 488 or terbium cryptate; also called monoclonal antibody mAb20; anti-ZnT8 mAb20
no binding: all assays above

B2: mAb39 (antibody, V domains shown)
VH: QVQLQQPGAELVKPGASVKLSCKASGYSFTTYWMHWVKQRPGQGLEWVGDINPRNGRTNYNEKSKSKATLTVDISSSTVYMQVSSLTSEDSAVYYCAIWSGAMDYWGPGTSVTVSS
VL: DVVMTQTPLSLPVSLGDQPSISCKSSQSLVHNNGNTYLHWYLQKPGQSPKLLIYKVSNRFSGVPDRFSGSGSGTDFTLKISRVEAEDLGVYFCSQTTHVPPTFGGGTKLEIKR
notes: Mouse hybridoma mAb purified on protein A/G; In some assays it was labelled with Alexa Fluor 555 or d2; also called monoclonal antibody mAb39; anti-ZnT8 mAb39
no binding: all assays above
